The values that follow come from paper PMC4495402 (Genes & Development, 2015).

The assay deals with Xenopus histone H3/H4 tetramer (Xenopus, UniProt P84233 21-136; P62799 17-103). In words: ITC.

In general, Kd refers to the equilibrium constant for the complex coming apart. The molecule ALRYMESSWKEQQKEEAKSLRLGMQEDLEEMRREEEEMQRRRAKKLKRR (domain or fragment) [hSpt2C (637–685) composed of only αC2] had a Kd of 2.3 µM and a dH of -38.9 kcal/mol.

Molecule EPQEEISKHIREIFGYDRKKYKDESDYALRYMESS (domain or fragment) [hSpt2C (610–644) composed of only αC1] came in with a Kd of 55.6 µM and a dH of -9.2 kcal/mol.

B1: yeast ySpt2C(259–333) (domain or fragment)
chain: PGYDRDEIWAMFNRGKKRSEYDYDELEDDDMEANEMEILEEEEMARKMARLEDKREEAWLKKHEEEKRRRKKGIR
With B1, the dH is -19.2 kcal/mol.
